Measurements from the supplement of paper PMC11780869.

Tested on: Bacillus subtilis
Assay: cleaved RNA product abundance (RNA/gDNA barcode ratio) relative to median wild-type variant (ratio to wild type); higher = more accumulation of the downstream cleavage product
Settings: experiment (reporter, strain, medium): exp 8a: truncated aprE reporter, strain BJT201 with 2% xylose (RNase J1 expressed); cleavage site: glnRA (positions -5 to +31 mutated)
Summary of the method: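 Reporter mRNAs based on truncated aprE or tetM carried barcoded, mutagenized RNase Y cleavage-site windows built from oligos with a 9% error rate and were integrated into the B. subtilis chromosome. Cultures grew in LB at 37°C from OD600 0.0003 to 0.3. Cleaved RNA was gel-selected, reverse transcribed and barcode-sequenced together with genomic DNA barcodes, and UMIs were collapsed. Cleaved product abundance is the per-construct ratio of RNA to gDNA barcodes, scaled to the median of constructs carrying the unmutated site.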

Sequence | cleaved RNA product abundance
CGACATGTCCCGCTTCTTTCATTACTACGTTAGCAACTGTTTTGCTATATACATTTACCTTTTAAGAGGAGGAAT | 2.07
CGACATGTCCCGCTTCTTTCATTACTACGTTAGCAACTGTTTTGCTATATATATTTACCTTTTAAGAGGAGGAAT | 1.18
CGACATGTCCCGCTTCTTTCATTACTCAGTTAGCAACTGTTTTGCTATATACATTTACCTTTTAAGAGGAGGAAT | 1.1
CGACATGTCCCGCTTCTTTCATTACTCCATTAGCAACTGTTTTGCTATATACATTTACCATTTAAGAGGAGGAAT | 1.11
CGACATGTCCCGCTTCTTTCATTACTCCATTAGCAACTGTTTTGCTATATACATTTACCTTTTAAGAGGAGGAAT | 1.18
CGACATGTCCCGCTTCTTTCATTACTCCCCTAGCAACTGTTTGGCTATATATATTTACCTTTTAAGAGGAGGAAT | 0.221
CGACATGTCCCGCTTCTTTCATTACTCCCTTAGCAACTGTTTTGCTATATACATTTACCTTTTAAGAGGAGGAAT | 0.223
CGACATGTCCCGCTTCTTTCATTACTCCGTCAGCAACTGTTTTGCTATATACATTTACCTTTTAAGAGGAGGAAT | 0.381
CGACATGTCCCGCTTCTTTCATTACTCCGTTAACAACTGTTTTGCTATATACATTTACCTTTTAAGAGGAGGAAT | 0.261
CGACATGTCCCGCTTCTTTCATTACTCCGTTACCAACTGTTTTGCTATATACATTTACCTTTTAAGAGGAGGAAT | 0.176
CGACATGTCCCGCTTCTTTCATTACTCCGTTAGAAACTGTTTTGCTATATACATTTACCTTTTAAGAGGAGGAAT | 0.478
CGACATGTCCCGCTTCTTTCATTACTCCGTTAGCAAATGTTTTGCTATATACATTTACCTTTTAAGAGGAGGAAT | 1.14
CGACATGTCCCGCTTCTTTCATTACTCCGTTAGCAACAGTTATGCTATATACATTTACCTTTTAAGAGGAGGAAT | 0.735
CGACATGTCCCGCTTCTTTCATTACTCCGTTAGCAACAGTTTTGCTATATACATTTACCTTTTAAGAGGAGGAAT | 0.834
CGACATGTCCCGCTTCTTTCATTACTCCGTTAGCAACTATTTTGCTATATACATTTACCTTTTAAGAGGAGGAAT | 1.31
CGACATGTCCCGCTTCTTTCATTACTCCGTTAGCAACTCTTTTGCTATATACATTTACCTTTTAAGAGGAGGAAT | 1.33
CGACATGTCCCGCTTCTTTCATTACTCCGTTAGCAACTGCTTTGCTATATACATTTACCTTTTAAGAGGAGGAAT | 0.597
CGACATGTCCCGCTTCTTTCATTACTCCGTTAGCAACTGTATTGCTATATACATTTACCTTTTAAGAGGAGGAAT | 0.89
CGACATGTCCCGCTTCTTTCATTACTCCGTTAGCAACTGTCTTGCTATATACATTTACCTTTTAAGAGGAGGAAT | 0.946
CGACATGTCCCGCTTCTTTCATTACTCCGTTAGCAACTGTGTTGCTATATACATTTACCTTTTAAGAGGAGGAAT | 0.327
CGACATGTCCCGCTTCTTTCATTACTCCGTTAGCAACTGTTATGCTATATACATTTACCTTTTAAGAGGAGGAAT | 0.602
CGACATGTCCCGCTTCTTTCATTACTCCGTTAGCAACTGTTTAGCTATATACATTTACCTTTTAAGAGGAGGAAT | 0.694
CGACATGTCCCGCTTCTTTCATTACTCCGTTAGCAACTGTTTGGCTATATACATTTACCTTTTAAGAGGAGGAAT | 0.644
CGACATGTCCCGCTTCTTTCATTACTCCGTTAGCAACTGTTTTACTATATACATTTACCTTTTAAGAGGAGGAAT | 0.792
CGACATGTCCCGCTTCTTTCATTACTCCGTTAGCAACTGTTTTCCTATATACATTTACCTTTTAAGAGGAGGAAT | 0.679
CGACATGTCCCGCTTCTTTCATTACTCCGTTAGCAACTGTTTTGATATATACATTTACCTTTTAAGAGGAGGAAT | 0.587
CGACATGTCCCGCTTCTTTCATTACTCCGTTAGCAACTGTTTTGCAATATACATTTACCTTTTAAGAGGAGGAAT | 0.515
